Laboratory results as given in patent US20200308299A1 (published 2020).

T1: human Glypican-1 (UniProt P35052 24-530)
T1 chain: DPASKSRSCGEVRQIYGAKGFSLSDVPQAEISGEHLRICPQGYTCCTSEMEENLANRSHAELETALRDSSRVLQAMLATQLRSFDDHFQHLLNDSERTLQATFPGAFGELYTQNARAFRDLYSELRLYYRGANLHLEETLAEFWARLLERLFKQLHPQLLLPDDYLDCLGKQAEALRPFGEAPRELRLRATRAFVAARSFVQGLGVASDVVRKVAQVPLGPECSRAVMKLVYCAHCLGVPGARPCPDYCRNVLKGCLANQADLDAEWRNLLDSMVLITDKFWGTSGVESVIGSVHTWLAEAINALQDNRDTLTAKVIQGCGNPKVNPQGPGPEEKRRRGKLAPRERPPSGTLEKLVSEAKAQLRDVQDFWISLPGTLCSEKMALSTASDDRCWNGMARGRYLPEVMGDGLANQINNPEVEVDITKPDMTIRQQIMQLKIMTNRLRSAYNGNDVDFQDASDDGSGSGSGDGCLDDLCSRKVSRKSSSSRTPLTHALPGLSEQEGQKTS


Legend:
human Glypican-1 [1] = target: T1, human Glypican-1; experiment: FACS
human Glypican-1 [2] = target: T1, human Glypican-1; experiment: Biacore
clone18 [3] = experiment: FACS
clone4 [4] = experiment: FACS
clone18 [5] = experiment: Biacore
clone4 [6] = experiment: Biacore

Row | Binder | Kd (human Glypican-1 [1]) [nM] | Kd (human Glypican-1 [2]) [nM] | Kd (clone18 [3]) [nM] | Kd (clone4 [4]) [nM] | Kd (clone18 [5]) [nM] | Kd (clone4 [6]) [nM]
1 | anti-Glypican-1 antibody clone K090-01a009 (antibody, V domains shown) VH: EVQLQQSGPELVKPGASVEISCKASGYSFTGYFMNWVKQSQGKSLEWIGRINPDNGDIFYNQKFKGKATLTVDKSSSTAHMELRSLTSEDSAVYYCARSWNWYFDVWGAGTTVTVSS VL: DIQMTQSPASLSASVGETVTITCRASENIYSYLAWYQQKQGKSPQLLVYNAKTLAEGVPSRFSGSGSGTQFSLKINSLQPEDFGSYYCQHHYGTPYTFGSGTKLEIKR | 4.47 | 26.9 |  |  |  | 
2 | anti-Glypican-1 antibody clone K090-01a030 (antibody, V domains shown) VH: QVQLQQSGAELVRPGTSVKMSCKAAGYTFTNYWIGWVKQRPGHGLEWIGDIYPGGGYTHYNEKFKGKATLTADTSSSTAYMQLSSLTSEDSAIYYCARERVYYDGSRYFDVWGAGTTVTVSS VL: DIKMTQSPKFLPVSAGDRVTMTCKASQSVGNNVAWYQQKPGQSPKLLIYYASNRYTGVPDRFTGSGSGTDFTFTISSVQVEDLAVYFCQQHYSSPWTFGGGTKLEIKR | 5.24 | 42.8 |  |  |  | 
3 | anti-Glypican-1 antibody clone K090-01a026 (antibody, V domains shown) VH: QVHLQQSGAELVRPGTSVKMSCKAAGYTFTNYWIGWVKQRPGHGLEWIGDIYPGGGYTHYNEKFKGKATLTADTSSSTAYMQLSSLTSEDSAIYYCARERVYYDGSRFFDVWGAGTTVTVSS VL: DIVMSQSPKFLPVSAGDRVTMTCKASQSVGNNVAWYQQKPGQSPKLLIYYASNRYTGVPDRFTGSGSGTDFTFTISSVQVEDLAVYFCQQHYSSPWTFGGGTKLEIKR | 11.2 | 12400 |  |  |  | 
4 | anti-Glypican-1 antibody clone K090-01a017 (antibody, V domains shown) VH: EVQLQQSGGELVRPGTSVKMSCKAAGYTFTNYWIGWVKQRPGHGLEWIGDLYPGGGYTHYNEKFKGKATLTADTSSSTAYMQLSSLTSEDSAIYYCARERVYFDGSRYFDVWGAGTTVTVSS VL: SIVMTQTPKFLPVSAGDRVTMTCKASQSVGNNVAWYQQKPGQSPKLLIYYASNRYTGVPDRFTGSGSGTDFTFTISSVQVEDLAVYFCQQHYSSPWTFGGGTKLEIKR | 5.92 | 24.9 |  |  |  | 
5 | anti-Glypican-1 antibody clone K090-02a014 (antibody, V domains shown) VH: EVQLQQSGPELVKPGASVKISCKASGYSFTGYYIHWVKQSPEKSLEWIGEINPSTGDITYNQKFKAKATLTVDKSSSTAYMQLKSLTSDDSAVYYCARERNYDRFAYWGQGTLVTVSS VL: SIVMTQTPALMAASPGEKVTITCSVSSSISSSNLHWYQQKSETSPKPWIYGTSNLASGVPVRFSGSGSGTSYSLTISSMEAEDAATYYCQQWSSYPLTFGAGTKLEIKR | 1.72 | 2.52 |  |  |  | 
6 | anti-Glypican-1 antibody clone K090-01a002 (antibody, V domains shown) VH: EVQLQQSGPELVKPGASVKISCKSSGYSFTRYYMHWVKHSPEKSLEWIGEINPSTGDTTYNQKFKAKATLTVDKSSSTAYMQLKSLTSEDSAVYYCAREKRDDGVLAYWGQGTLVTVSS VL: DIQMTQSPKFLPVSAGDRVTMTCKASQSVGNNVAWYQQKPGQSPKLLIYYASNRYTGVPDRFTGSGSGTDFTFTISSVQVEDLAVYFCQQHYSSPLTFGAGTKLELKR | 0.638 | 4.99 |  |  |  | 
7 | GPC1 (other) DPASKSRSCGEVRQIYGAKGFSLSDVPQAEISGEHLRICPQGYTCCTSEMEENLANRSHAELETALRDSSRVLQAMLATQLRSFDDHFQHLLNDSERTLQATFPGAFGELYTQNARAFRDLYSELRLYYRGANLHLEETLAEFWARLLERLFKQLHPQLLLPDDYLDCLGKQAEALRPFGEAPRELRLRATRAFVAARSFVQGLGVASDVVRKVAQVPLGPECSRAVMKLVYCAHCLGVPGARPCPDYCRNVLKGCLANQADLDAEWRNLLDSMVLITDKFWGTSGVESVIGSVHTWLAEAINALQDNRDTLTAKVIQGCGNPKVNPQGPGPEEKRRRGKLAPRERPPSGTLEKLVSEAKAQLRDVQDFWISLPGTLCSEKMALSTASDDRCWNGMARGRYLPEVMGDGLANQINNPEVEVDITKPDMTIRQQIMQLKIMTNRLRSAYNGNDVDFQDASDDGSGSGSGDGCLDDLCSRKVSRKSSSSRTPLTHALPGLSEQEGQKTS |  |  | 1.52 | 0.804 | 3.21 | 3.21
8 | anti-Glypican-1 antibody clone K090-01a042 (antibody, V domains shown) VH: QVQLQQPGAELAKPGASVKMSCKASGYTFTRYWMHWVKQRPGQGLEWIGYINPSSGYTEYNQKFKDKATLTADKSSSTAYMQLSSLTSEDSAVYYCVRLGDYSYYFDYWGQGTTLTVSS VL: DVVMTQTPLSLPVSLGDQASISCRSSQSIVHSNGNTYLEWYLQKPGQSPKLLIYKVSNRFSGVPDRFSGSGSGTDFTLKISRVEAEDLGVYYCFQGSHVPWTFGGGTKLELKR | 6.36 | 16.2 |  |  |  | 
9 | anti-Glypican-1 antibody clone K090-02b006 (antibody, V domains shown) VH: EVQLVESGGGLVKPGGSRKLSCAASGFTFSDYGMHWVRQAPEKGLEWVAYISSGSSTIYYADTVKGRFTISRDNAKNTLFLQMTSLRSEDTAIYYCVRHSYYNYDIGGYYAMDYWGQGTSVTVSS VL: DIVLTQSPSSLSASLGERVSLTCRASQEISGYLSWLQQKPDGTIKRLIYAASTLDSGVPKRFSGSRSGSDYSLTISSLESEDFADYYCLQYASYPLTFGAGTKLEIKR | 3.2 | 16.3 |  |  |  | 
10 | anti-Glypican-1 antibody clone K090-01a033 (antibody, V domains shown) VH: QVQLKQSGPELVKPGASVKISCKASGYSFTGYYMHWVKQSPEKSLEWIGEINPSTGDTTYNQKFKAKATLTVDKSSSTAYMQLKSLTSEDSAVYYCAREKRDDGVFAYWGQGTLVTVSS VL: DIVMSQSPKSMSMSVGERVALSCKASENVGTYVSWYQQKPEQSPKLLIYGASNRYTGVPDRFTGSGSATDFTLTISSVQAEDLADYYCGQSYSYPLTFGAGTKLELKR | 0.583 | 8.9 |  |  |  | 
11 | anti-Glypican-1 antibody clone K090-02a010 (antibody, V domains shown) VH: EVKLVESGGGLVKPGGSRKLSCAASGFTFSDYGMHWVRQAPEKGLEWVAYINSGSSTIYYADTVKGRFTISRDNAKNTLFLQMTSLRSGDTAMYYCARHSYYSYDVGGDYVMDYWGQGTSVTVSS VL: DIVLTQSPKFMSTSVGDRVSITCKASQDVGTAVAWYQQKPGQSPKLLIYWASTRHTGVPDRFTGSGSGTDFTLTISNVQSEDLADYFCQQYSSYPLTFGAGTKLEIKR | 2.25 | 1.28 |  |  |  | 
12 | anti-Glypican-1 antibody clone K090-02a002 (antibody, V domains shown) VH: EVKLVESGGGLVKPGGSRKLSCAASGFTFSDYGMHWVRQAPEKGLEWVAYISSGSSTIYYADTVKGRFTISRDNAKNTLFLQMTSLRSEDTAMYYCARHSYYSYDVGGDYVMDYWGQGTSVTVSS VL: DIVMSQSPKFMSTSVGDRVSITCKASQDVGTAVAWYQQKPGQSPKLLIYWASTRHTGVPDRFTGSGSGTDFTLTISNVQSEDLADYFCQQYSSYPLTFGAGTKLEIKR | 2.25 | 1.12 |  |  |  | 
